Columns and labels:
[1] = RALY ubiquitination western blot
[2] = western blot of RALY protein
[3] = half-life analysis, western blot, Hep3B and Huh7; conditions: glycan gained; control: DMSO
[4] = glycan lost, control: RALYKO-WT
[5] = glycan gained, control: untreated / control-transfected cells

B1: RALY: S176A (protein)
parent chain: MSLKLQASNVTNKNDPKSINSRVFIGNLNTALVKKSDVETIFSKYGRVAGCSVHKGYAFVQYSNERHARAAVLGENGRVLAGQTLDINMAGEPKPDRPKGLKRAASAIYSGYIFDYDYYRDDFYDRLFDYRGRLSPVPVPRAVPVKRPRVTVPLVRRVKTNVPVKLFARSTAVTTSSAKIKLKSSELQAIKTELTQIKSNIDALLSRLEQIAAEQKANPDGKKKGDGGGAGGGGGGGGSGGGGSGGGGGGGSSRPPAPQENTTSEAGLPQGEARTRDDGDEEGLLTHSEEELEHSQDTDADDGALQ
**Q.** Which results are given for B1?
**A.** other: ubiquitination [1, 4]: increases; degradation_or_half_life (CHX chase, western blot; [4]): decreases

B2: RALY: TMG or PUG (protein)
parent chain: B1 parent chain
**Q.** With B2 as the protein, how does the degradation_or_half_life (CHX chase, western blot; glycan gained, control: untreated RALYKO-WT) read?
**A.** Its degradation_or_half_life is “increases”.

B3: RALY: siOGT (protein)
parent chain: B1 parent chain
**Q.** With B3 as the protein, how does the expression_or_secretion ([2]; glycan lost, control: untreated / control-transfected cells) read?
**A.** Its expression_or_secretion is “decreases”.

B4: RALY: TMG (protein)
parent chain: B1 parent chain
**Q.** Which “degradation_or_half_life, half_life” value [3] does the source give for B4 here?
**A.** The value was “increases, approximately 40 (Hep3B), 32 (Huh7) vs approximately 16 (Hep3B), 15 (Huh7)”.

**Q.** And the expression_or_secretion ([2]; glycan gained, control: TRIM27-overexpressing cells without TMG)?
**A.** The expression_or_secretion was “increases”.

**Q.** And the expression_or_secretion [2, 5]?
**A.** Its expression_or_secretion is “increases”.

**Q.** What about the “other: ubiquitination” value ([1]; glycan gained, control: untreated) of the same protein?
**A.** Its value is “decreases”.

B5: RALY: OE-OGT (protein)
parent chain: B1 parent chain
**Q.** Which expression_or_secretion [2, 5] does the source give for B5 here?
**A.** Its expression_or_secretion is “increases”.

B6: RALY: PUG (protein)
parent chain: B1 parent chain
**Q.** What does the source list for B6?
**A.** degradation_or_half_life, half_life [3]: increases; expression_or_secretion [2, 5]: increases

Reference: PMC11234212
